Measurements from article PMC7617061.

Molecular target: U1-C zinc finger (UniProt P09234)
Assay: NMR titration
Conditions: pseudouridine at U1 strand positions 5 and 6

Sequence of UniProt P09234 (P09234 1-61): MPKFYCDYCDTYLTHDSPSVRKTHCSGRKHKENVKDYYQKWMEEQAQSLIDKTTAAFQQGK

“AUACUUACCUG / GGAGUAAGUCU [U1 snRNA 5'-end / SMN2 E7 5'-SS RNA duplex]” showed a binding signal (fold affinity increase vs no SMN-C5) of 3.
